Here are results for one molecule from patent US20050277167A1, “Prolyl 3-hydroxylases” (priority 2004, published 2005).

Data set [1] deals with T1, (Pro-Pro-Gly)10 substrate (Gallus gallus, UniProt Q6JHU8).
T1 construct: Purified P3H1 from 15-day-old chick embryos was tested for its enzymatic activity using a labeled procollagen substrate; from tissue; host or cells: 15 day-old chick embryos: rER-enriched extract, gelatin-Sepharose, then 1C10 antibody column eluted at pH 2.5
T1 sequence (Q6JHU8 15-725): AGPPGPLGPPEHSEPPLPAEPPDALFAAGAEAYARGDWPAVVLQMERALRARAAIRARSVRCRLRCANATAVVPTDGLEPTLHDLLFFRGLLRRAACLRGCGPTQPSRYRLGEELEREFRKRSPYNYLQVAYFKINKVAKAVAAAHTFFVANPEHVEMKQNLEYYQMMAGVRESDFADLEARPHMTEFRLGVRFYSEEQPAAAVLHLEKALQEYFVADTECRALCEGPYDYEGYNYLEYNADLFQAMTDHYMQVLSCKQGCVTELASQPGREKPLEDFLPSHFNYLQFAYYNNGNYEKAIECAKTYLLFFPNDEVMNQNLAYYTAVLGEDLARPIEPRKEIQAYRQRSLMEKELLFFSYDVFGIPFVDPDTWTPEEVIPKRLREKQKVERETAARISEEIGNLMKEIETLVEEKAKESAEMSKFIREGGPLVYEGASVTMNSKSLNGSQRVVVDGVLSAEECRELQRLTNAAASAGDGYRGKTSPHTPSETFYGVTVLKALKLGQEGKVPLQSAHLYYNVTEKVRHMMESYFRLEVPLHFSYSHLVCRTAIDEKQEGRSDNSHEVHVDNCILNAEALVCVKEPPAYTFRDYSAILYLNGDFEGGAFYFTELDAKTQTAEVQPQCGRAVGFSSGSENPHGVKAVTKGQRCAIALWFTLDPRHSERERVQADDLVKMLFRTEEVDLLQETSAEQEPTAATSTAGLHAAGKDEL
As to the kind of experiment: Prolyl 4-hydroxylase activity assay, hydroxylation-coupled decarboxylation of 2-oxo[1-14C]glutarate. Format: biochemical. The conditions noted are these: purified P3H1 enzyme. The method, then: The prolyl 4-hydroxylase activity was assayed by a method based on the hydroxylation-coupled decarboxylation of 2-oxo[1-^14C]glutarate (Kivirikko et al., 1982). The reaction was performed in a final volume of 1.0 ml, which contained 0.1 mg (Pro-Pro-Gly)10.9H^2O as substrate, 2 mM ascorbic acid, 0.05 mM FeSO^4, 0.1 mM dithiothreitol, 2 mg/ml bovine serum albumin, 0.1 mg/ml catalase, 50 mM Tris-HCl, pH 7.8, and 0.1 mM 2-oxo[1-^14C]glutarate (100,000 dpm). The reaction was stopped by the addition of 1 ml of 1 M KH2PO4, pH 5.0.

The target in data set [2] is T2, [2,3-3H]-L-proline-labeled procollagen substrate (Gallus gallus, UniProt Q6JHU8).
T2 construct: Purified P3H1 from 15-day-old chick embryos was tested for its enzymatic activity using a labeled procollagen substrate; from tissue; host or cells: 15 day-old chick embryos: rER-enriched extract, gelatin-Sepharose, then 1C10 antibody column eluted at pH 2.5
T2 sequence (Q6JHU8 15-725): T1 sequence (Q6JHU8 15-725)
Kind of data set: Prolyl 3-hydroxylase activity assay, release of tritiated water (THO) from labeled procollagen substrate. The conditions noted are these: same Km expressed per ml reaction volume. Format: biochemical, chicken. The method, then: Prolyl 3-hydroxylase activity was measured based on the amount of tritiated water (THO) formed from a labeled procollagen substrate (Kivirikko et al. Matrix Biol, 16, 357-368 (1998); Risteli et al. Anal Biochem, 84, 423-431 (1978)) with the following modifications. [2,3-^3H]-L-Proline, 42 Ci/mmol, was purchased from Sigma.[2,3-^3H]-proline-labeled nonhydroxylated procollagen was prepared from the isolated cells of the leg tendons from 12 dozen 15 day-old chicken embryos (Berg et al., Biochemistry, 12, 3395-3401 (1973); Dehm et al. Biochim Biophys Acta, 264, 375-382 (1972); Kivirikko et al., Methods Enzymol, 82 Pt A, 245-304 (1982)). […]
The prolyl 3-hydroxylase reactions were performed as described previously (Kivirikko et al., 1982; Risteli et al., 1978; Tryggvason et al., 1976) but with the following modifications: the enzyme reaction was carried out for 60 minutes at 24° C. in a final volume of 2.0 mls containing 1×10^6 dpm [2,3-^3H]-L-proline-labeled substrate, 0.08 mM FeSO^4, 2 mM ascorbic acid, 0.5 mM 2-oxoglutarate, 0.2 mg/ml catalase, 2 mg/ml bovine serum albumin, 0.1 mM dithiothreitol, and 0.05 M Tris-HCl, pH 7.8. […] A 1.8 ml aliquot of the tritiated water was mixed with 10 mls Ecolume liquid scintillation cocktail (ICN) and counted in a Beckman LS5000TD liquid scintillation counter. […]

B1: P3H1: prolyl 3-hydroxylase 1 purified from 15-day-old chick embryos, chicken homologue of leprecan (protein)
chain: T1 sequence (Q6JHU8 15-725)
Consider B1, for which the “prolyl 4-hydroxylase activity” value in data set [1] is recorded as “did not have any prolyl 4-hydroxylase activity”. In data set [2], the Km was 89.5 μl of substrate per ml.
